The chains are these.
B1: Tissue factor, P13726 (parent)
chain: METPAWPRVPRPETAVARTLLLGWVFAQVAGASGTTNTVAAYNLTWKSTNFKTILEWEPKPVNQVYTVQISTKSGDWKSKCFYTTDTECDLTDEIVKDVKQTYLARVFSYPAGNVESTGSAGEPLYENSPEFTPYLETNLGQPTIQSFEQVGTKVNVTVEDERTLVRRNNTFLSLRDVFGKDLIYTLYYWKSSSSGKKTAKTNTNEFLIDVDKGENYCFSVQAVIPSRTVNRKSTDSPVECMGQEKGEFREIFYIIGAVVFVVIILVIILAISLHKCRKAGVGQSWKENSPLNVS
B2: Ribose import binding protein RbsB, P02925 (parent)
chain: MNMKKLATLVSAVALSATVSANAMAKDTIALVVSTLNNPFFVSLKDGAQKEADKLGYNLVVLDSQNNPAKELANVQDLTVRGTKILLINPTDSDAVGNAVKMANQANIPVITLDRQATKGEVVSHIASDNVLGGKIAGDYIAKKAGEGAKVIELQGIAGTSAARERGEGFQQAVAAHKFNVLASQPADFDRIKGLNVMQNLLTAHPDVQAVFAQNDEMALGALRALQTAGKSDVMVVGFDGTPDGEKAVNDGKLAATIAQLPDQIGAKGVETADKVLKGEKVQAKYPVDLKLVVKQ
B3: Aspartate aminotransferase, P00509 (parent)
chain: MFENITAAPADPILGLADLFRADERPGKINLGIGVYKDETGKTPVLTSVKKAEQYLLENETTKNYLGIDGIPEFGRCTQELLFGKGSALINDKRARTAQTPGGTGALRVAADFLAKNTSVKRVWVSNPSWPNHKSVFNSAGLEVREYAYYDAENHTLDFDALINSLNEAQAGDVVLFHGCCHNPTGIDPTLEQWQTLAQLSVEKGWLPLFDFAYQGFARGLEEDAEGLRAFAAMHKELIVASSYSKNFGLYNERVGACTLVAADSETVDRAFSQMKAAIRANYSNPPAHGASVVATILSNDALRAIWEQELTDMRQRIQRMRQLFVNTLQEKGANRDFSFIIKQNGMFSFSGLTKEQVLRLREEFGVYAVASGRVNVAGMTPDNMAPLCEAIVAVL
B4: Inorganic pyrophosphatase, P0A7A9 (parent)
chain: MSLLNVPAGKDLPEDIYVVIEIPANADPIKYEIDKESGALFVDRFMSTAMFYPCNYGYINHTLSLDGDPVDVLVPTPYPLQPGSVIRCRPVGVLKMTDEAGEDAKLVAVPHSKLSKEYDHIKDVNDLPELLKAQIAHFFEHYKDLEKGKWVKVEGWENAEAAKAEIVASFERAKNK
B5: Tryptophan synthase alpha chain, P00929 (parent)
chain: MERYENLFAQLNDRREGAFVPFVTLGDPGIEQSLKIIDTLIDAGADALELGVPFSDPLADGPTIQNANLRAFAAGVTPAQCFEMLALIREKHPTIPIGLLMYANLVFNNGIDAFYARCEQVGVDSVLVADVPVEESAPFRQAALRHNIAPIFICPPNADDDLLRQVASYGRGYTYLLSRSGVTGAENRGALPLHHLIEKLKEYHAAPALQGFGISSPEQVSAAVRAGAAGAISGSAIVKIIEKNLASPKQMLAELRSFVSAMKAASRA
B6: Persulfide dioxygenase ETHE1, mitochondrial, O95571 (parent)
chain: MAEAVLRVARRQLSQRGGSGAPILLRQMFEPVSCTFTYLLGDRESREAVLIDPVLETAPRDAQLIKELGLRLLYAVNTHCHADHITGSGLLRSLLPGCQSVISRLSGAQADLHIEDGDSIRFGRFALETRASPGHTPGCVTFVLNDHSMAFTGDALLIRGCGRTDFQQGCAKTLYHSVHEKIFTLPGDCLIYPAHDYHGFTVSTVEEERTLNPRLTLSCEEFVKIMGNLNLPKPQQIDFAVPANMRCGVQTPTA
B7: Membrane-associated guanylate kinase, WW and PDZ domain-containing protein 1, Q96QZ7 (parent)
chain: MSKVIQKKNHWTSRVHECTVKRGPQGELGVTVLGGAEHGEFPYVGAVAAVEAAGLPGGGEGPRLGEGELLLEVQGVRVSGLPRYDVLGVIDSCKEAVTFKAVRQGGRLNKDLRHFLNQRFQKGSPDHELQQTIRDNLYRHAVPCTTRSPREGEVPGVDYNFLTVKEFLDLEQSGTLLEVGTYEGNYYGTPKPPSQPVSGKVITTDALHSLQSGSKQSTPKRTKSYNDMQNAGIVHAENEEEDDVPEMNSSFTADSGEQEEHTLQETALPPVNSSIIAAPITDPSQKFPQYLPLSAEDNLGPLPENWEMAYTENGEVYFIDHNTKTTSWLDPRCLNKQQKPLEECEDDEGVHTEELDSELELPAGWEKIEDPVYGIYYVDHINRKTQYENPVLEAKRKKQLEQQQQQQQQQQQQQQQQQQQQTEEWTEDHSALVPPVIPNHPPSNPEPAREVPLQGKPFFTRNPSELKGKFIHTKLRKSSRGFGFTVVGGDEPDEFLQIKSLVLDGPAALDGKMETGDVIVSVNDTCVLGHTHAQVVKIFQSIPIGASVDLELCRGYPLPFDPDDPNTSLVTSVAILDKEPIIVNGQETYDSPASHSSKTGKVNGMKDARPSSPADVASNSSHGYPNDTVSLASSIATQPELITVHIVKGPMGFGFTIADSPGGGGQRVKQIVDSPRCRGLKEGDLIVEVNKKNVQALTHNQVVDMLVECPKGSEVTLLVQRGGLPVPKKSPKSQPLERKDSQNSSQHSVSSHRSLHTASPSHSTQVLPEFPPAEAQAPDQTDSSGQKKPDPFKIWAQSRSMYENRPMSPSPASGLSKGEREREINSTNFGECPIPDYQEQDIFLWRKETGFGFRILGGNEPGEPIYIGHIVPLGAADTDGRLRSGDELICVDGTPVIGKSHQLVVQLMQQAAKQGHVNLTVRRKVVFAVPKTENEVPSPASSHHSSNQPASLTEEKRTPQGSQNSLNTVSSGSGSTSGIGSGGGGGSGVVSTVVQPYDVEIRRGENEGFGFVIVSSVSRPEAGTTFAGNACVAMPHKIGRIIEGSPADRCGKLKVGDRILAVNGCSITNKSHSDIVNLIKEAGNTVTLRIIPGDESSNATLLTNAEKIATITTTHTPSQQGTQETRNTTKPKQESQFEFKAPQATQEQDFYTVELERGAKGFGFSLRGGREYNMDLYVLRLAEDGPAERCGKMRIGDEILEINGETTKNMKHSRAIELIKNGGRRVRLFLKRGDGSVPEYDPSSDRHGPATGPQGVPEVRAGPDRRQHPSLESSYPPDLHKSSPHGEKRAHARDPKGSREYSRQPNEHHTWNGTSRKPDSGACRPKDRAPEGRRDAQAERAAAANGPKRRSPEKRREGTRSADNTLERREKHEKRRDVSPERRRERSPTRRRDGSPSRRRRSLERLLEQRRSPERRRGGSPERRAKSTDRRRARSPERRRERSLDKRNREDRASHREREEANLKQDAGRSSRHPPEQRRRPYKECSTDLSI
B8: E188K|H125Y, Q88HV5 (parent)
chain: MPFQQGLLATPVPAHARHLFFTLQSPEALPAALDALLPQVDGKQLLLGVGAPLAKALGREIPGLRPFPLLDAAVENPSTQHALWLWLRGDERGDLLLRTQALEQALAPALSLADSVDGFLHRGGHDLTGYEDGTENPTDEEAVQAAIAADGSSFAAFQLWKHDLQYFKSLPQADQDNIIGRRLSDNEELDDAPASAHVKRTAQESFEPEAFMVRRSVSWADQRGAGLAFVALGKSFEAFEVQLRRMSGLEDGIIDGLYRFSRPLTGGYYWCPPMSETGVDLSPLLRA
B9: Phosphoglycerate kinase, P00560 (parent)
chain: MSLSSKLSVQDLDLKDKRVFIRVDFNVPLDGKKITSNQRIVAALPTIKYVLEHHPRYVVLASHLGRPNGERNEKYSLAPVAKELQSLLGKDVTFLNDCVGPEVEAAVKASAPGSVILLENLRYHIEEEGSRKVDGQKVKASKEDVQKFRHELSSLADVYINDAFGTAHRAHSSMVGFDLPQRAAGFLLEKELKYFGKALENPTRPFLAILGGAKVADKIQLIDNLLDKVDSIIIGGGMAFTFKKVLENTEIGDSIFDKAGAEIVPKLMEKAKAKGVEVVLPVDFIIADAFSADANTKTVTDKEGIPAGWQGLDNGPESRKLFAATVAKAKTIVWNGPPGVFEFEKFAAGTKALLDEVVKSSAAGNTVIIGGGDTATVAKKYGVTDKISHVSTGGGASLELLEGKELPGVAFLSEKK

Values joined by “and” are separate entries in the source; they are usually repeats but may differ in a detail not shown here. Equal values may be shown once.

Variants of B1 are the subject of one data set. The note with it: Homo sapiens; pH 7.5; 23 °C; GdnHCl; Fluorescence; Tris-HCl 50 mM; reversible: yes; structure 1BOY; whole UniProt chain shown.
Turning to R232W, the “ddG of mutation (higher = less stable)” value was -0.6 kcal/mol, the “denaturant midpoint (higher = more stable)” value (“denaturant midpoint” below) was determined as 1.37 M and the unfolding free energy is 6.9 kcal/mol.

Another data set covers variants of B2. The note with it: Escherichia coli (strain K12); pH 7.7; 25 °C; GdnHCl; Fluorescence; HEPES 10 mM; reversible: yes; structure 2DRI; whole UniProt chain shown.
Regarding A52T, the unfolding free energy is 1.8 kcal/mol.

In a further data set the parent is B3. The settings on record: Escherichia coli (strain K12); pH 7.5; 25 °C; Urea; enzyme activity; potassium phosphate 20 mM; structure 1AMQ; whole UniProt chain shown.
C180W: the unfolding free energy is 6.1 kcal/mol.

On to C180Y, for which the unfolding free energy was 7.7 kcal/mol.

In the case of C180F, the unfolding free energy came out at 8.4 kcal/mol.

On to C180S, for which the unfolding free energy is 8.1 kcal/mol.

The next data set covers variants of B4. The note with it: Escherichia coli (strain K12); pH 7; Thermal; CD; HEPES 20 mM; MgCl2 5 mM; structure 1FAJ; whole UniProt chain shown.
D27N: the Tm was found to be 83 °C.

Still in this data set, the particulars now being: Escherichia coli (strain K12); pH 7; Thermal; CD; HEPES 20 mM; structure 1FAJ; whole UniProt chain shown.
Consider D27N, for which the Tm turned out to be 58 °C.

In a further data set the parent is B5. The settings on record: Salmonella typhimurium (strain LT2 / SGSC1412 / ATCC 700720); pH 7.8; Thermal; Enzyme activity; sodium N/N-bis(2-hydroxyethyl)glycine 0.05 M; structure 2WSY; whole UniProt chain shown.
With C118S, the Tm turned out to be 41 °C and the “change of melting temperature, mutant - wild type (higher = more stable)” value (“change of melting temperature, mutant” for short) was -5 °C.

In another data set the parent is B6. The note with it: Homo sapiens; pH 7.5; Thermal; CD; Tris-HCl 50mM; NaCl 150mM; transition: 2; structure 4CHL; whole UniProt chain shown.
Take R163Q: the Tm was found to be 55 °C and the “change of melting temperature, mutant” value is -7 °C.

In the case of R163W, the Tm was 52 °C and the “change of melting temperature, mutant” value is -10 °C.

The next data set covers variants of B7. The settings on record: Homo sapiens; pH 7; Thermal; CD; Tris-HCl 20 mM; NaCl 100 mM; structure 2ZAJ; whole UniProt chain shown.
Take D370S: the “unfolding enthalpy (calorimetric)” value was 14.4 kcal/mol and 9.15 kcal/mol; the “unfolding enthalpy (van 't Hoff)” value was 9.37 kcal/mol and 9.15 kcal/mol.

Variants of B8 are the subject of another data set. The settings on record: Pseudomonas putida (strain ATCC 47054 / DSM 6125 / CFBP 8728 / NCIMB 11950 / KT2440); pH 7.6; Fluorescence spectroscopy; whole UniProt chain shown.
Consider E188K H125Y, for which the Tm was 61 °C.

In the case of E188K A142V H125Y, the Tm came to 59 °C.

The variants in a further data set derive from B9. The note with it: Saccharomyces cerevisiae (strain ATCC 204508 / S288c); pH 6.2; 20 °C; Thermal; CD; potassium phosphate 20 mM; structure 3PGK; whole UniProt chain shown.
On to W334F, for which the unfolding free energy worked out at 5.16 kcal/mol.

Take W309F W334F Y123W: the unfolding free energy amounted to 5.23 kcal/mol.

Turning to W309F, the unfolding free energy was 5.43 kcal/mol.

The data set is the same for the next values; noted with them: Saccharomyces cerevisiae (strain ATCC 204508 / S288c); pH 7.5; 22 °C; GdnHCl; CD; Tris 20 mM; structure 3PGK; whole UniProt chain shown.
As for W334F, the “ddG of mutation (higher = less stable)” value was -2.2 kcal/mol, the “denaturant midpoint” value turned out to be 0.64 M and the unfolding free energy is 10 kcal/mol.

Consider W309Y, for which the “ddG of mutation (higher = less stable)” value was 3.6 kcal/mol, the “denaturant midpoint” value came to 0.55 M and the unfolding free energy is 4.2 kcal/mol.

The same data set, now with this note: Saccharomyces cerevisiae (strain ATCC 204508 / S288c); pH 6.5; 25 °C; GdnHCl; CD; Sodium phosphate 20 mM; reversible: yes; structure 3PGK; whole UniProt chain shown.
Regarding H389Q, the “ddG of mutation (higher = less stable)” value amounted to 0.84 kcal/mol, the denaturant m value was 6.08 kcal/mol/M and the unfolding free energy was found to be 2.99 kcal/mol.

The data set is the same for the next values; noted with them: Saccharomyces cerevisiae (strain ATCC 204508 / S288c); pH 6.2; 20 °C; GdnHCl; CD; potassium phosphate 50 mM; structure 3PGK; whole UniProt chain shown.
In the case of W309F W334F Y123W, the denaturant m value amounted to 14 kcal/mol/M and the unfolding free energy is 5.71 kcal/mol.

As for W309F, the denaturant m value is 18 kcal/mol/M and the unfolding free energy was found to be 10.3 kcal/mol.

These data come from FireProtDB.
